In paper PMC11390681:

System: F4 (K88) fimbriae on intact ETEC strain SP11 cells (Escherichia coli (ETEC-F4+, strain SP11))
Test: whole-cell binding with qPCR quantification of eluted aptamer
Conditions: 138 mM NaCl, 20 mM Tris-HCl pH 7.4, 2.7 mM KCl, 1 mM CaCl2, 0.5 mM MgCl2, 0.1 mg/mL salmon sperm DNA, 30 min at 37 C, 500 rpm, washes with 0.05% Tween 20

Row | Sequence | Kd (intact SP11 cells, about 10^8 CFU/mL, 1 mM CaCl2, 0.5 mM MgCl2) | Kd
1 | CGTACGGTCGACGCTAGCACACTCTTTTGCTCGTGTTTTTGCCTGTTACATAAAATGAATCAGTGGATGTTTCCTTCTCACGTGGAGCTCGGATCC [Apt31] | 81.8 nM | 
2 | CGTACGGTCGACGCTAGCGGAGACCGTACCATCTGTTCGTGGAAGCGCTTTGCTCGTCCATTAGCCTTGTGCTCGTGCCACGTGGAGCTCGGATCC [Apt37] |  | 50.8 nM
